# Data taken from patent publication US20230183753A1, “Methods of in Vitro Cell Delivery” (Intellia Therapeutics, Inc., priority 2020, published 2023).
# Oligonucleotides are written 5' to 3', each unit as a sugar letter and its base; * is a phosphorothioate linkage, no mark a phosphodiester; rarer units and linkages stand in square brackets, end groups in braces. Plain capitals give the bases only. m = 2'-O-methyl; r = 2'-OH (RNA)
# B1: G016206: guide targeting TRBC1/2 (SEQ ID NO: 713) (nucleic acid)
# guide: mC*mG*mC*rUrGrUrCrArArGrUrCrCrArGrUrUrCrUrArGrUrUrUrUrArGrAmGmCmUmAmGmAmAmAmUmAmGmCrArArGrUrUrArArArArUrArArGrGrCrUrArGrUrCrCrGrUrUrArUrCrAmAmCmUmUmGmAmAmAmAmAmGmUmGmGmCmAmCmCmGmAmGmUmCmGmGmUmGmCmU*mU*mU*mU
# How the values were obtained:
# [1] = system: B2M, TRAC, TRBC1/2, CIITA; assay: NGS editing profile of T cells with BC22n or Cas9 mRNA, single or four guides, LNP titration, Example 16A; assay type: cell-based, human; details: LNP;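 note: activated T cells exposed to LNPs 72 h after activation, kept at 37 °C, harvested on day 10 post activation, editing measured by NGS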
# Procedure: Cells were expanded in T cell basal media for 72 hours prior to LNP transfection.
# LNPs were mixed to fixed total mRNA weight ratios of 6:3:2 for editor mRNA, guide RNA, and UGI mRNA respectively as described in Table 12. […] LNP mixtures were incubated for 5 minutes at 37° C. in T cell basal media substituting 6% cynomolgus monkey serum (Bioreclamation IVT, Cat. CYN220760) for fetal bovine serum.
# T cells were incubated at 37° C. with 5% CO2 for the duration of the experiment.
# In total, T cells were exposed to 6 different LNPs simultaneously (editor mRNA, UGI mRNA, 4 guides).
# [2] = system: B2M, CD3, MHC II; assay: Flow cytometry of antigen negative T cells (B2M, CD3, MHC II) after BC22n or Cas9 editing, Example 16A; assay type: cell-based, human
# Source text: Cells were subsequently washed, processed on a Cytoflex instrument (Beckman Coulter) and analyzed using the FlowJo software package. T cells were gated based on size, shape, viability, and antigen expression.
# [3] = multiple guide delivery (four guides simultaneously), locus of the guide assayed, editor BC22n, total RNA 8.6 ng
# [4] = multiple guide delivery (four guides simultaneously), locus of the guide assayed, editor BC22n, total RNA 17.2 ng
# [5] = multiple guide delivery (four guides simultaneously), locus of the guide assayed, editor BC22n, total RNA 34.4 ng
# [6] = multiple guide delivery (four guides simultaneously), locus of the guide assayed, editor BC22n, total RNA 68.8 ng
# [7] = multiple guide delivery (four guides simultaneously), locus of the guide assayed, editor BC22n, total RNA 137.5 ng
# [8] = multiple guide delivery (four guides simultaneously), locus of the guide assayed, editor BC22n, total RNA 275.0 ng
# [9] = multiple guide delivery (four guides simultaneously), locus of the guide assayed, editor BC22n, total RNA 550.0 ng
# [10] = multiple guide delivery (four guides simultaneously), locus of the guide assayed, editor Cas9, total RNA 8.6 ng
# [11] = multiple guide delivery (four guides simultaneously), locus of the guide assayed, editor Cas9, total RNA 17.2 ng
# [12] = multiple guide delivery (four guides simultaneously), locus of the guide assayed, editor Cas9, total RNA 34.4 ng
# [13] = multiple guide delivery (four guides simultaneously), locus of the guide assayed, editor Cas9, total RNA 68.8 ng
# [14] = multiple guide delivery (four guides simultaneously), locus of the guide assayed, editor Cas9, total RNA 137.5 ng
# [15] = multiple guide delivery (four guides simultaneously), locus of the guide assayed, editor Cas9, total RNA 275.0 ng
# [16] = multiple guide delivery (four guides simultaneously), locus of the guide assayed, editor Cas9, total RNA 550.0 ng
# [17] = single guide delivery, editor BC22n, total RNA 8.6 ng
# [18] = single guide delivery, editor BC22n, total RNA 17.2 ng
# [19] = single guide delivery, editor BC22n, total RNA 34.4 ng
# [20] = single guide delivery, editor BC22n, total RNA 68.8 ng
# [21] = single guide delivery, editor BC22n, total RNA 137.5 ng
# [22] = single guide delivery, editor BC22n, total RNA 275.0 ng
# [23] = single guide delivery, editor BC22n, total RNA 550.0 ng
# [24] = single guide delivery, editor Cas9, total RNA 8.6 ng
# [25] = single guide delivery, editor Cas9, total RNA 17.2 ng
# [26] = single guide delivery, editor Cas9, total RNA 34.4 ng
# [27] = single guide delivery, editor Cas9, total RNA 68.8 ng
# [28] = single guide delivery, editor Cas9, total RNA 137.5 ng
# [29] = single guide delivery, editor Cas9, total RNA 275.0 ng
molecule,measurement,setting,value
B1,C-to-A/G % mean,[1]; [3],2.6%
same,C-to-T % mean,[1]; [3],11.6%
same,Indel % mean,[1]; [3],2.8%
same,C-to-A/G % mean,[1]; [4],3.6%
same,C-to-T % mean,[1]; [4],23.4%
same,Indel % mean,[1]; [4],2.6%
same,C-to-A/G % mean,[1]; [5],3.7%
same,C-to-T % mean,[1]; [5],38.5%
same,Indel % mean,[1]; [5],2.9%
same,C-to-A/G % mean,[1]; [6],2.3%
same,C-to-T % mean,[1]; [6],55.6%
same,Indel % mean,[1]; [6],2.4%
same,C-to-A/G % mean,[1]; [7],1.8%
same,C-to-T % mean,[1]; [7],72.4%
same,Indel % mean,[1]; [7],1.7%
same,C-to-A/G % mean,[1]; [8],1.9%
same,C-to-T % mean,[1]; [8],85.1%
same,Indel % mean,[1]; [8],1.7%
same,C-to-A/G % mean,[1]; [9],2.2%
same,C-to-T % mean,[1]; [9],89.8%
same,Indel % mean,[1]; [9],0.9%
same,C-to-A/G % mean,[1]; [10],0.7%
same,C-to-T % mean,[1]; [10],0.2%
same,Indel % mean,[1]; [10],2.3%
same,C-to-A/G % mean,[1]; [11],0.7%
same,C-to-T % mean,[1]; [11],0.3%
same,Indel % mean,[1]; [11],4.2%
same,C-to-A/G % mean,[1]; [12],0.5%
same,C-to-T % mean,[1]; [12],0.1%
same,Indel % mean,[1]; [12],6.6%
same,C-to-A/G % mean,[1]; [13],0.5%
same,C-to-T % mean,[1]; [13],0.4%
same,Indel % mean,[1]; [13],12.3%
same,C-to-A/G % mean,[1]; [14],0.5%
same,C-to-T % mean,[1]; [14],0.2%
same,Indel % mean,[1]; [14],17.8%
same,C-to-A/G % mean,[1]; [15],0.5%
same,C-to-T % mean,[1]; [15],0.1%
same,Indel % mean,[1]; [15],33.0%
same,C-to-A/G % mean,[1]; [16],0.3%
same,C-to-T % mean,[1]; [16],0.3%
same,Indel % mean,[1]; [16],43.3%
same,C-to-A/G % mean,[1]; [17],6.1%
same,C-to-T % mean,[1]; [17],23.7%
same,Indel % mean,[1]; [17],6.1%
same,C-to-A/G % mean,[1]; [18],6.8%
same,C-to-T % mean,[1]; [18],42.4%
same,Indel % mean,[1]; [18],6.8%
same,C-to-A/G % mean,[1]; [19],5.7%
same,C-to-T % mean,[1]; [19],60.1%
same,Indel % mean,[1]; [19],5.9%
same,C-to-A/G % mean,[1]; [20],4.3%
same,C-to-T % mean,[1]; [20],73.2%
same,Indel % mean,[1]; [20],4.7%
same,C-to-A/G % mean,[1]; [21],3.6%
same,C-to-T % mean,[1]; [21],81.7%
same,Indel % mean,[1]; [21],3.7%
same,C-to-A/G % mean,[1]; [22],2.3%
same,C-to-T % mean,[1]; [22],91.0%
same,Indel % mean,[1]; [22],2.8%
same,C-to-A/G % mean,[1]; [23],2.0%
same,C-to-T % mean,[1]; [23],93.6%
same,Indel % mean,[1]; [23],1.7%
same,C-to-A/G % mean,[1]; [24],0.5%
same,C-to-T % mean,[1]; [24],0.3%
same,Indel % mean,[1]; [24],8.1%
same,C-to-A/G % mean,[1]; [25],0.7%
same,C-to-T % mean,[1]; [25],0.3%
same,Indel % mean,[1]; [25],14.9%
same,C-to-A/G % mean,[1]; [26],0.8%
same,C-to-T % mean,[1]; [26],0.2%
same,Indel % mean,[1]; [26],24.1%
same,C-to-A/G % mean,[1]; [27],0.4%
same,C-to-T % mean,[1]; [27],0.2%
same,Indel % mean,[1]; [27],35.9%
same,C-to-A/G % mean,[1]; [28],0.5%
same,C-to-T % mean,[1]; [28],0.2%
same,Indel % mean,[1]; [28],48.6%
same,C-to-A/G % mean,[1]; [29],0.4%
same,C-to-T % mean,[1]; [29],0.1%
same,Indel % mean,[1]; [29],63.8%
same,"percent cells negative for antigen, CD3 neg, Mean %","[2]; editor BC22n, total RNA 8.6 ng",32.6%
same,"percent cells negative for antigen, CD3 neg, Mean %","[2]; editor BC22n, total RNA 17.2 ng",53.4%
same,"percent cells negative for antigen, CD3 neg, Mean %","[2]; editor BC22n, total RNA 34.4 ng",71.9%
same,"percent cells negative for antigen, CD3 neg, Mean %","[2]; editor BC22n, total RNA 68.8 ng",82.9%
same,"percent cells negative for antigen, CD3 neg, Mean %","[2]; editor BC22n, total RNA 137.5 ng",90.4%
same,"percent cells negative for antigen, CD3 neg, Mean %","[2]; editor BC22n, total RNA 275.0 ng",96.0%
same,"percent cells negative for antigen, CD3 neg, Mean %","[2]; editor BC22n, total RNA 550.0 ng",97.9%
same,"percent cells negative for antigen, CD3 neg, Mean %","[2]; editor Cas9, total RNA 8.6 ng",7.9%
same,"percent cells negative for antigen, CD3 neg, Mean %","[2]; editor Cas9, total RNA 17.2 ng",16.1%
same,"percent cells negative for antigen, CD3 neg, Mean %","[2]; editor Cas9, total RNA 34.4 ng",27.0%
same,"percent cells negative for antigen, CD3 neg, Mean %","[2]; editor Cas9, total RNA 68.8 ng",40.6%
same,"percent cells negative for antigen, CD3 neg, Mean %","[2]; editor Cas9, total RNA 137.5 ng",59.4%
same,"percent cells negative for antigen, CD3 neg, Mean %","[2]; editor Cas9, total RNA 275.0 ng",77.3%
same,"percent cells negative for antigen, CD3 neg, Mean %","[2]; editor Cas9, total RNA 550.0 ng",86.6%
